In patent US20230383288, “SYSTEMS, METHODS, AND COMPOSITIONS FOR RNA-GUIDED RNA-TARGETING CRISPR EFFECTORS” (Massachusetts Institute of Technology, published 2023):

Molecular target: T1, DiCas7-11 D429A/D654A (Desulfonema ishimotonii, D429A,D654A)
T1 chain: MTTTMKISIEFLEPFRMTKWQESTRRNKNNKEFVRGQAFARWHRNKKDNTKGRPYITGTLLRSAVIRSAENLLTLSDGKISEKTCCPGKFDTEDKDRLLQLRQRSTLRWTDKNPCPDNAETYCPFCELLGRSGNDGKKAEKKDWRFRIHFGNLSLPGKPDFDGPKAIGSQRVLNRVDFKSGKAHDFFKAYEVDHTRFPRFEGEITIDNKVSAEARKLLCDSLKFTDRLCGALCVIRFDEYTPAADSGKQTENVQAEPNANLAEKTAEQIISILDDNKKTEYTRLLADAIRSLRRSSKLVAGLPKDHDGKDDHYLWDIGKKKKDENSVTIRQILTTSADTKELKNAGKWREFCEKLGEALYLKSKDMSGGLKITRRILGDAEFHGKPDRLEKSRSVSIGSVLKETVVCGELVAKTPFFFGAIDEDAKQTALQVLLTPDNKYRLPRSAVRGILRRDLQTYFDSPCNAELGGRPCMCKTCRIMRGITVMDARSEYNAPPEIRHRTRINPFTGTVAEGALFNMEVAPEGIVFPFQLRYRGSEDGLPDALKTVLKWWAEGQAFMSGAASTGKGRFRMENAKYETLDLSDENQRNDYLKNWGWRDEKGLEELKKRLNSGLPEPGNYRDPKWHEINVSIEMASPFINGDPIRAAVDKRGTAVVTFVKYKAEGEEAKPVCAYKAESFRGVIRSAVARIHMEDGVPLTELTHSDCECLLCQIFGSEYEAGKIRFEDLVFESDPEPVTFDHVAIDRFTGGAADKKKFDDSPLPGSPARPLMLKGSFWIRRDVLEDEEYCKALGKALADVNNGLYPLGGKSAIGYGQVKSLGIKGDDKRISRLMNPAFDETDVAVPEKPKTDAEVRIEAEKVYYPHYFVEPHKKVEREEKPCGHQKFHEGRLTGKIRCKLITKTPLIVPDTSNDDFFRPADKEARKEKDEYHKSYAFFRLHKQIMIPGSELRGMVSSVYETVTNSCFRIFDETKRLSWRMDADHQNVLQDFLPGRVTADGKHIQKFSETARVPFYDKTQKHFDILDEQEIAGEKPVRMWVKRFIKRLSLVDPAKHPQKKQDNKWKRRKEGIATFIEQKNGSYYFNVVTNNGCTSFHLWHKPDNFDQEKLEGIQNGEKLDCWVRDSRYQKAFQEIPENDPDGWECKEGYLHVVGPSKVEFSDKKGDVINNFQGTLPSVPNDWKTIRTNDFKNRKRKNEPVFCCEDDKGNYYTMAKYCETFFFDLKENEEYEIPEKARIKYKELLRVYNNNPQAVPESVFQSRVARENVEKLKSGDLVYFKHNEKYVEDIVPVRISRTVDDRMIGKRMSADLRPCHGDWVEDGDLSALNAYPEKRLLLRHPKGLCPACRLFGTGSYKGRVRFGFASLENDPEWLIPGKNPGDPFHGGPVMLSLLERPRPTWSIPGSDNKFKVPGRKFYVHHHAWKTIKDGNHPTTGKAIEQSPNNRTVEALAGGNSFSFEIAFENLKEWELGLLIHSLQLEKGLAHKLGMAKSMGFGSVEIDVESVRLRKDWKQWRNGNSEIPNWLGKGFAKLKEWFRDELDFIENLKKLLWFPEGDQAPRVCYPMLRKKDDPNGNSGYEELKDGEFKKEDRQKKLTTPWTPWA
Experiment: structure; cryo-EM 2.45 A, PDB 7WAH; 20 mM Hepes pH 7.0, 150 mM NaCl, 2 mM MgCl2; target pairs with crRNA 1-23 except flipped 4 and 10
Settings: tags: N-terminal MBP, C-terminal His6
Method: A Cas7-11-crRNA-target RNA complex was reconstituted by mixing the purified MBP-Cas7-11 protein, the 39-nucleotide crRNA, and the 25-nucleotide target RNA, at a molar ratio of 1:1.2:1.5. The complex was purified by size-exclusion chromatography on a Superose6 Increase 10/300 column (GE Healthcare), equilibrated with the buffer containing 20 mM Hepes-NaOH, pH 7.0, 150 mM NaCl, 2 mM MgCl₂, and 1 mM DTT. The peak fraction containing Cas7-11-:crRNA-target RNA complex was concentrated to 1.5 A260 units using an Amicon Ultra-4 filter (10 kDa molecular-weight cutoff; Millipore). The samples (3 μl) were then applied to freshly glow-discharged Au 300 mesh R1.2/1.3 grids (Quantifoil) in a Vitrobot Mark IV (FEI) at 4° C. with a waiting time of 10 sec and a blotting time of 4 sec under 100% humidity conditions. The grids were plunge-frozen into liquid ethane cooled at liquid nitrogen temperature.
A model was built using Nautilus and Buccaneer in CCP-EM package and manually built using COOT against the density map sharpened using DeepEMhancer. […] The curve representing model vs. full map was calculated using phenix.mtriage, based on the final model and the full, filtered, and sharpened map. The cryo-EM density maps were calculated with UCSF ChimeraX, and molecular graphics figures were prepared with CueMol (http://www.cuemol.org).

B1: crRNA for structural analysis ; target RNA for structural analysis (ssRNA ; ssRNA)
RNA 1: GGUGAUGUCACGGAACCUUUGUUGUCUUCGACAUGGGUAAU
RNA 2: GGAUUACCCAUGUCGAAGACAACAAAG
  binding result: binds
